Target: SARS-COV-2 Wuhan WT Spike_del18 on VSV-delG pseudotyped particles (SARS-COV-2) (UniProt P0DTC2)
Assay: cell-based or functional assay

Substance: VHH72-5mut-Fc (VHH72_h1_E1D_R27L_E31D_Y32I_S56G_L97A-10xGS-hIgG1_EPKSCdel_LALA_K447del) (Fc fusion)
- potency of neutralization against D72-53: 2.5 times
